Consider 21 sequences from the DeepSol protein solubility set.

This data set is described as follows: soluble on expression in E. coli; label from the status in PepcDB or PDB records.
For the sequence “MEWTEEIVSKGFALYVALSKKGFITSKEDEYFQWYEERGVQDFIRKVIEPTGKVMIFLDEQDGVIQMVPEVENETMSYTNDDLKKELGFKDNKEIHLFYFILFILIAELEQPYDTESADRMYLPMDELLDKMNGYIEQYERLGEEKLEELSDEYDVDVAGIVEAWGRMADFKEGATSHIRTKDNRRMYIEKTLKFLEKEKLIRIREHTNISVTNKMKNIISHYYHNVENKSKIHDLLLVTREGTVGEEEE”, the “soluble on expression in E. coli” value is on record as “not soluble”. On to “MPKWGNINERRNQLHEVIRLSGMNLIIDDTDHPLIIKVASIQSARMQVYFIDNDDYFQNRLQTADENGVEYDDNDSRAIFYARGVLETVKKLRWCPDVIHCHGWMTALAPLYIKKAYKDEPSFRDAKVVFSVYEDDFKGTFNNDFASKLMLKGINKKDVATLKDPVDYATLCKLAVDYSDGIVQNSEHVNEDVMNYARQSGKLVLDYQAPDALADACNSFYDQVWEAEQK”, for which the “soluble on expression in E. coli” value is given as “not soluble”. For “MSLSYEYFPGFYDRLMDSELYDEWLEFSADFIGDTSKKVLDLACGTAEFALRLSFLGHQVTGVDLSKEMVAVAKEKVAAAEINLSILEQDMSKLALNQTFDVITCFCDSLNYLETEQALENTIKAVSDHLTPNGLFLFDVHSVFKIDQGFKDYSYGDSDEEISIIWNSFPGEYPHSVEHELTFYILGEDNMYNRVDELHKERTYPITTYKELLKKYGFSKIDVYADFSHENPTNSSERIFFVARKEGHHHHHH”, the “soluble on expression in E. coli” value was “soluble”.

For the sequence “GPGSMLQSLVNSIVFVPPRDPNSLQRVQLLQRKRHMSFTSKKSGERISYFHFDPKGDLVTKDNPERVVRSSMVLLFHHGNAEDLGSAFSYAQSMACVFGVAVVVYDYCGYGFSGFPDAAKPAEVTEKSVYSDADHMYAHLLSLGYPAHRIIIVGRSVGGGPACYLAEKHHKKVGGLVLISTFTSCLRVVSSCCLPYLCCCVDLFPNYRRIEHIMECPVLVMHGTHDNVVPHHCSSELLEDIVARRNNALQRLLKKREGARANQAKRSSVLGAASTGPTNTTTASATIIVADEALVTAQPPLDGETVSVFDLYRRAYDGLPEAVRRVAEGRLDVTAADASIGVFHRWFAGCGHNDIEAREGHAFSDMFDYFVRFSTAFSMEREALLLAKPVTGAAKASRDSLNRADSEVRE”, the “soluble on expression in E. coli” value is “not soluble”.

Regarding “MSLLIDFIDETEEVKEEYMSLIREVLEKAAQMENIEDGAEVSVTFVDNERIREINRDYRDKDQPTDVISFAMEEMGEGEMEIVGAEMPRMLGDLIISIPRAKEQAEEYGHSFDRELGFLALHGFLHLLGYDHMTEEDEKEMFGRQKEILEAFGLGR”, the “soluble on expression in E. coli” value was “not soluble”. Consider “MSLNFLEFEKPIAELEAKIEALRDVSRHGGDSAIDLDKEIEQLEKKSLELKKKIFSDLGAWETAQLARHPLRPYTLDYVQHVFEEFDELAGDRAFADDKAIVGGIARLEGRPVMIIGHQKGRETKEKVRRNFGMPKPEGYRKALRLMEMAERFNMPIITFIDTAGAYPGVGAEERGQSEAIAKNLKVMSGLKVPVICNVVGEGGSGGALAIGVGDYVNMLQYSTYSVISPEGCASILWRDSDKAPQAAEAMGLTAPRLKELELIDEIIEEPLGGAHRDHVKMAENMKATLLRQLEDLEQLDEESLRERRYQRLMNYGYC”, for which the “soluble on expression in E. coli” value was “not soluble”. As to “RIEEVKERFVNLNRLFQELVGDFQAKSDQLVSVIQDMEKISENIMEELKKSGTNVDQIVERVKEASSQIGETLENIRSIEKLIQNIMRIARETNILALNATIEAARAGEAGKGFMIVANEVQNLSNETNEVTKQIVEKAREILESSQRSLENLEFMANLFETVGKTLQNMVRFMENIVKLLQEVRNSLDTSKESLSEKSAEIDSATKVLEETA”, the “soluble on expression in E. coli” value is recorded as “soluble”.

As to “KAFIDIFDSFDPEPIACGSIAQVYKGVLEGKPVAVKILRPHLIDIINIDLSILDDFKPVMKKVMGVGKNFDIDAFLLEIREMLTREVDLRIEAVNMRRFEDNFKNVKNVSVPKIYPDYC”, the “soluble on expression in E. coli” value is given as “not soluble”. With “GPGSMPVDYSKKLDALRELYERVQQKDTDIPEDVYAAAGVKNKARLKDIEKEISTTKKKVSQEVKKVTNEEIEKEYEALAKEHNMTVEEFKETVMGKGRQPALGSEFSERHAAQRKERAEQRDLKETRRQVERGDFDMTVDYV”, the “soluble on expression in E. coli” value is “soluble”. As for “MHTIDVIDSHTAGEPTRVVLAGFPDLGDGDLAQCRERFRSDFDHWRSAIACEPRGSDTMVGALLLPPRDPSACTGVIFFNNVGYLGMCGHGTIGVVRTLAELGRIAPGQHRIETPVGTVGVALADDGTVSIDNVESYRHAAGVEVDVPGHGRVRGDVAWGGNWFFITEQAPCALGLAQQRELTAYTEAIRLALEAAGITGEAGGEIDHIEISGVAPDGSGAARNFVLCPGLAYDRSPCGTGTSAKLACLAADGKLAEGERWLQQGILGSAFEGSYRHSGRGIAPRISGHAFITARSQLLIDPADPFAWGIVALEHHHHHH”, the “soluble on expression in E. coli” value is listed as “not soluble”. As to “MLNKLSLLLKDAGISLTDHQKNQLIAYVNMLHKWNKAYNLTSVRDPNEMLVRHILDSIVVAPYLQGERFIDVGTGPGLPGIPLSIVRPEAHFTLLDSLGKRVRFLRQVQHELKLENIEPVQSRVEEFPSEPPFDGVISRAFASLNDMVSWCHHLPGEQGRFYALKGQMPEDEIALLPEEYQVESVVKLQVPALDGERHLVVIKANKILEHHHHHH”, the “soluble on expression in E. coli” value is “not soluble”. With “MGSDKIHHHHHHSDVVDLEPVDKFSELTAYGTEERCELAVVGAYDAAQCGMYVDPNDFGWARGYPFGAASILQGEMRGEDMNLTAQFYDYTYSATYNLTTANNVAMWETSFEAINRYNTVYAGIEGAVAAGVITEEKGNQYKGECLFLRALTYHNLMIHYALPYNVEGNNNYGMPIYTKAVNDPSQLAEQQSIGRSTVKDTYDQILSDLNNAESMLPDIIDADKIGRASKGAAIALKTRVYLHMRDWNNVVTEAKKLEGGRFILETNPATPFVSYKDNQESIFSIPNDSQDNGSVNGAMSAMMSAREGGRAMCPTSPTLYNSKFWKGDDKRRNLVLYRASDDYYFCDKYQNPQTREEYAPILRYAEVLLNEAEAAARAGDKTLALEKLNQVRDRSLADPATQTYKASDFANTKALVEAILWERRIEFQGEGRRWEDIHRLAADDLLPSGGIPAKIEYNNVKNQGAFVVGGEVKAEWFGNSKQFIPYTDKRFIWPIPLNDILRNPTLAAQQNAGW”, the “soluble on expression in E. coli” value is reported as “not soluble”. The value for “MSNIIVLSGSPRKGGNTDLLVDAFVKGAEKSNNVEVVSVAYYKVNPCIGCNSCFDRAGHECFQQDDMQIVYDKLKCADVIVVASPVYFYGVSAQLKAIIDRLHTPMRNDFKVKKLALILVGAAVLPELFDSIKIQYQLVLNFFKLEDAGMVLVRGAKDKGDVRNTDGLDEAYRLGLAME” was “not soluble”; that for “MNLEKINELTAQDMAGVNATILEQLNSDVQLINQLGYYIISGGGKRIRPMIAVLAARAVGYQGNAHVTIAALIEFIHTATLLHDDVVDESDMRRGKATANAAFGNAASVLVGDFIYTRAFQMMTSLGSLKVLEVMSEAVNVIAEGEVLQLMNVNDPDITEENYMRVIYSKTARLFEAAAQCSGILAGCTPEQEKGLQDYGRYLGTAFQLIDDLLDYSADGEHLGKNVGDDLNEGKPTLPLLHAMRHGTPEQSAMIRTAIEQGNGRHLLEPVLEAMTTCGSLEWTRQRAEEEADKAISALQILPDTPWREALIGLAHIAVQRDR” was “not soluble”; that for “MGSDKIHHHHHHMYVAVKGGEKAIEAAHQLQSCRRRGCTDIPELDCSQIEQQLNLAVDRVMTEGNIYDRQLAALAIKQASGDLVESIFLLRAYRSTLPRWGISQPLNTPDMRLERRVSAIFKDLPGGQLLGPTYDYTHRLLDFSLLADGEDPVAPQPDAVYEDEGTREHIPHAFQFLAQQHLVPERNISDDSNPSDITMEPPSYPGTRAARLQQLFRGDEGFLLSLGYSTQRGYGRNHPFVSEIRTGYITVSIVAEEVGFAIDIGEILLTECETVNGFVKPANDAPHFTRGYGLAFGRSERKAITVALADRALQAADYQEEVRGPAQDEEFVLSHADNVEAAGFVSHLKLPHYVDFQSELELLKRLREEYLASVPRSKA” was “not soluble”.

Turning to “MKKVGEYFLDPNLDPGRDHILYKDDEHMVIYLGTQEGLEDVDVNSYLIVSKGKGILIDPGGYKIFTKVLANVSKYIDPKDIEYIYMCHQDPDVAGSIPLWREISNAKIIIHWLWVRFLPHFGFENIRGYAHELQDEGETLNFGATTLEFIPAHFLHSPGHFTVYDRRSKFLFSGDIGIAFPDERYLVVENMERHIQYMRPLHERLMASNKALRLWVNKVRGLDIEAILPQHGAIIPRRFVPRFLDWLENLKVGVDLMR”, the “soluble on expression in E. coli” value was “soluble”. For the sequence “MIITDDHMHLYNHLKLKALEQFRDAGGTHVFLVNLLCHHYGIRPTSGKDFREVFERHLSLVEKANKIVKAYAVLGVHPAEITVIGDRIGHEKAAEMMKEALEIAGKYVEEGKAVALKSGRPHYPVSRHVWQLSNDVLRHAFEVAKDVGCAIQLHTESYTKEGMLEIAKMADEVGLKREKVVKHFSPPLIKEFEEIGIFPSVLAGNNNVLKAAEQGNRFTVETDYIDDRKRPGAVLGPKTVPRKVKELIELGYEDIAYKICVENVEKVYGV”, the “soluble on expression in E. coli” value is “not soluble”. With “MGSDKIHHHHHHMESHVNILKSDVKIDPSRSPFMKERVEVMYEGDDLESILEQVKEIELGEMTFKVIFVKINDLEGENKIEYAERRIIERRIGDCIDAEADVRNPERTFGIVPLGGRWYFGHYVESKPVWYHHIKKPRSYSTSLSTRVARSVANIAVPNPEGVRAIDPCCGIGTVVVEALSMGINIVGRDISPLVAIGARENIAHFGFDGTITKGPIEEITENYDVAIIDMPYDLFTHATPENQLSILSSARRIAKKVVVVTMETMDDMIHEAGFEIIDRCTTKKGTFSRQILVCE”, the “soluble on expression in E. coli” value was “not soluble”. “MGSDKIHHHHHHMAQQKDTKKITVFTSTYNRAYILPKLYESLKLQTCKDFEWLVVDDGSEDETSELFDKWLEEDVIEIAYFKKKNGGKHRAINFAASKAQGQLFFIVDSDDYLTLTAVEIICKEWEKVENKKQSAGLCFRKICYNTGKMIGADFPVSPIDASSLTICYKWKIYEDKAEVFKTELIRRFPFPEIEGEKFISEAIVWNKISVCDSPLLRCVNTGIYMCEYLPDGLTANFIKLMKRNPKGGILYYKSLFNLSCIRKNPIDILKISLRLSQCIIYSFLRCFGSYL”: the “soluble on expression in E. coli” value is “not soluble”. As to “MYAALFPGQGSHRVGMGRALYEASPAAKEVLDRAEAALPGLLKLMWEGPEEALTLTENQQPALLAAGYAAYRAFLEAGGKPPALPEGHSLGEWTAHVAAGTLELEDALRLVRLRGRYMQEAVPVGEGAMAAVLKLPLEEIQKALEGLEGVEIANLNAPEQTVISGRRQAVEEAAERLKERRARVVFLPVSAPFHSSLMAPARKRLAEDLAQVPLRRPRFPVYSNVTARPEEDPERIRALLLEQITAPVRWVEILRDMEARGVKRFLEFGSGEVLKGLVLRTLKEAEALSVQDPDSLRKALEVERA”, the “soluble on expression in E. coli” value is reported as “soluble”. The result for “MSSERACMLCGIVQTTNEFNRDGCPNCQGIFEEAGVSTMECTSPSFEGLVGMCKPTKSWVAKWLSVDHSIAGMYAIKVDGRLPAEVVELLPHYKPRDGSGSATIWGVRCRPGKEKELIRKLLKKKFNLDRAMGKKKLKILSIFQRDNYTGRIYIEAPKQSVIEKFCNGVPDIYISQKLLIPVQELPLLLKPNLEHHHHHH” reads “soluble”.
